{
  "source": "paper PMC3649970",
  "about": "“A Unique Spumavirus Gag N-terminal Domain with Functional Properties of Orthoretroviral Matrix and Capsid” (PLoS Pathogens, 2013)",
  "binders": {"B1": {"name": "PFV Env leader peptide residues 1-20 (peptide, UniProt P14351 1-20, looked up)", "peptide": "MAPPMTLQQWIIWKKMNKAH", "notes": "Envelope (Env) protein of Prototypic Foamy Virus, N-terminal leader peptide region, residues 1-20 (Met1 to His20); the text names M1, A2, P3, P4, M5, T6, L7, Q9, W10, W13, M16, A19, H20; also called Env_(1-20); Env(1-20); source: synthetic peptide, bought HPLC purified: Pepceuticals Ltd"}},
  "test_in_all_cases": "AUC; sedimentation velocity of 75 µM equimolar mixtures of Gag-NtD and Env peptide, absorbance at 280 nm; bound fraction from the integrated absorbance of the 3S species in C(S)",
  "settings_in_all_cases": "both partners purified",
  "key": {"PFV-Gag-NtD V14S/L21S": {"biological_target": "T1, PFV-Gag-NtD V14S/L21S (Prototypic foamy virus (PFV), UniProt P14349 1-179, V14S | L21S)", "T1 construct": "Gag of Prototypic Foamy Virus, residues 1-179 (Gag-NtD) with V14S and L21S; also called Val14/Leu21 to serine", "T1 sequence (looked up)": "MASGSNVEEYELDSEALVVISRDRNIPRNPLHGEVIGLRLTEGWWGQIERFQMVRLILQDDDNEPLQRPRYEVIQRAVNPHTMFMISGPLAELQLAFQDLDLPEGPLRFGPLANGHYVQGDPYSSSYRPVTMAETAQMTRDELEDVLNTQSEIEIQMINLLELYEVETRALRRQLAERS"}, "PFV-Gag-NtD V14S": {"biological_target": "T2, PFV-Gag-NtD V14S (Prototypic foamy virus (PFV), UniProt P14349 1-179, V14S)", "T2 construct": "Gag of Prototypic Foamy Virus, residues 1-179 (Gag-NtD) with V14S", "T2 sequence (looked up)": "T1 sequence (looked up) with S21L"}, "PFV-Gag-NtD V14S/V18S": {"biological_target": "T3, PFV-Gag-NtD V14S/V18S (Prototypic foamy virus (PFV), UniProt P14349 1-179, V14S | V18S)", "T3 construct": "Gag of Prototypic Foamy Virus, residues 1-179 (Gag-NtD) with V14S and V18S", "T3 sequence (looked up)": "T1 sequence (looked up) with V18S, S21L"}, "[1]": {"biological_target": "T4, PFV-Gag-NtD (amino terminal domain of Prototypic Foamy Virus Gag, residues 1-179) (Prototypic foamy virus (PFV), UniProt P14349 1-179)", "T4 construct": "source: E. coli Rosetta 2 (DE3), purified (Ni-NTA, Superdex 200 SEC); not shown: His-tag, N-terminal, kept", "T4 sequence": "T1 sequence (looked up) with S14V, S21L"}},
  "note": "Positions count from the first letter of the chain named.",
  "data": [
    {"binder": "B1", "values": [
      {"measurement": "fold reduction in binding against wt PFV-Gag-NtD", "setting": "PFV-Gag-NtD V14S/L21S", "result": "~20", "unit": "fold"},
      {"measurement": "binding result", "setting": "PFV-Gag-NtD V14S", "result": "binds"},
      {"measurement": "binding result", "setting": "PFV-Gag-NtD V14S/V18S", "result": "binds"},
      {"measurement": "Ka", "setting": "[1]", "result": 130000, "unit": "M⁻¹"}
    ]}
  ]
}
